Laboratory results published in PMC6392328.

Experiments:
[1] = target: pAcGFP1-53 (positive control bait) (UniProt P02340); experiment: co-IP; Matchmaker Co-IP system; HEK 293 cells co-transfected with the pAcGFP1 bait and the pProLabel prey; co-immunoprecipitation with protein G Plus/A agarose beads, read by the ProLabel enzyme complementation assay (RLU every 5 min for 45 min)
[2] = target: ASB9 bait in the pAcGFP1-C vector (pAcGFP1-ASB9) (bovine); experiment: as above

UniProt P02340, sequence (P02340 whole entry): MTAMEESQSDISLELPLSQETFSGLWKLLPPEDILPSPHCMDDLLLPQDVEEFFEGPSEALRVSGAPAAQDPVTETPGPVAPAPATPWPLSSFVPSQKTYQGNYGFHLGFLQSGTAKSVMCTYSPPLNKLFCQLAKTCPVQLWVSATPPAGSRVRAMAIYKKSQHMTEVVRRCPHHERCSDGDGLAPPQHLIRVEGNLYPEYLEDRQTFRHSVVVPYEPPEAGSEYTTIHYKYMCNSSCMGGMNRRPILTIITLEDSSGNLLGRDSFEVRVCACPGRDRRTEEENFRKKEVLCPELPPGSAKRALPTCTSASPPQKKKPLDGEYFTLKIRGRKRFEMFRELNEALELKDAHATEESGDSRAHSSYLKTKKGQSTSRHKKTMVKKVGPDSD

Substance	fold induction of ProLabel enzymatic activity after co-IP (positive control) [1] [fold]	fold induction of ProLabel enzymatic activity after co-IP, against the negative control, at 40 minutes [2] [fold]
ProLabel-T (positive control prey) (natural protein)	37	–
Hypoxia inducible factor 1, alpha subunit (HIF1A) in the pProLabel-C vector (natural protein)	–	13
Tumor necrosis factor alpha-induced protein 6 (TNFAIP6) in the pProLabel-C vector (natural protein)	–	18
